In this data set the test system is LexA (Escherichia coli). Put plainly: EMSA. The conditions noted are these: 0.5 nM DNA or nucleosome, 10 mM Tris-HCl pH 8.0, 130 mM NaCl, 10% glycerol, 0.0075% Tween-20, room temperature, 20 min; 5% native acrylamide gel in 0.3x TBE. For orientation: A gel shift assay detects complexes by their altered migration in electrophoresis.

Take YNN1-LexO naked DNA: the Kd (in general, the concentration at which binding is half-saturated) was under 5 nM.

These data come from paper doi:10.64898/2025.12.08.693039.
